Test results as given in US7888090B2, “Mutants of O6-alkylguanine-DNA alkyltransferase” (Ecole Polytechnique Federale de Lausanne, priority 2004, dated 2011).

Key:
salmon sperm DNA = experiment: DNA binding as inhibition by DNA of the reaction with BG-Cy3; details: salmon sperm DNA 25 µg/ml
Method: The interaction with DNA is e.g. quantified by assessing the amount of copurified DNA from E. coli extracts under conditions of low salt and absence of DNase. This is compared between parallel purifications of fusion proteins (e.g. fusions to GST) of wild type (human) and mutant AGT by spectroscopic methods (ratio of absorbance at 260 and 280 nm). Alternatively the interaction of AGT with DNA is measured as the inhibition of AGT reactivity with BG-Cy3 (O^6-(4-aminomethyl-benzyl)-guanine coupled to Cy3) as substrate in the presence of DNA. This approach takes advantage of a marked increase of fluorescence of the Cy3 fluorophore upon reaction of BG-Cy3 with AGT. The reaction kinetics of AGT with a Cy3-labeled benzylguanine derivative is followed by fluorescence intensity measurements over several hours at various concentrations of salmon sperm DNA.
DNA binding: DNA binding is measured as inhibition by DNA of the reaction of AGT mutants with BG derivatives. The reaction rate of AGT mutants in a reaction mixture containing salmon sperm DNA (25 µg/ml) instead of oligonucleotide is measured with the BG-Cy3 assay. The reaction rate is determined by fitting the obtained data to a monoexponential increase to maximum.

[1] = Reaction of two AGT variants in one sample with CPTG and BG-Bt; assay type: biochemical; details: CPTG and BG-Bt both at 5 μM, 30 minutes
Method: FIG. 2: Western blot of the reaction of wild type hAGT (GST-hAGT fusion protein) and AGTM with the two substrates N^9-cyclopentyl-O^6-bromophenyl-guanine (CPTG) and biotinylated O^6-benzylguanine (BG-Bt, substance 3a of Juillerat et al. 2003) as described in Example 7. BG-Bt is present in all samples at 5 μM. Detection with neutravidin-peroxidase conjugate and luminescent peroxidase substrate detecting any AGT reacted with BG-Bt. Even under simultaneous incubation with identical concentrations of CPTG and BG-Bt only about 5% of GST-hAGT reacts with substrate BG-Bt.
Within the experiment two tags with different size for the two AGT proteins are used: The His-tagged AGTM (˜20 kDa) and GST-hAGT (cloned and prepared as described in Example 1, but starting with the wild type hAGT gene, ˜48 kDa) are diluted to 0.2 μM and 1.2 μM final concentration, respectively, in reaction buffer containing 50 mM HEPES, 1 mM DTT, 200 mg/mL BSA (pH 7.3). The sample is incubated with a mixture of substrates N^9-cyclopentyl-O^6-bromophenyl-guanine (CPTG; 0, 5 and 10 μM final concentrations) and biotinylated O^6-benzylguanine (BG-Bt, 5 μM final concentration) for 30 minutes. The reaction is quenched by addition of SDS-Laemmli buffer and subjected to Western blotting analysis (Example 1). As the two AGT variants have different masses, the two proteins can be separated on an acrylamide gel and analyzed independently. […] At the same concentration (both substrates at 5 μM final concentration), 95% of GST-hAGT reacts with CPTG, versus only 5% of His-tagged AGTM.

B1: AGTM: AGT mutant Cys62Ala, Gln115Ser, Gln116His, Lys125Ala, Ala127Thr, Arg128Ala, Gly131Lys, Gly132Thr, Met134Leu, Arg135Ser, Cys150Asn, Ser151Ile, Ser152Asn, Asn157Gly, Ser159Glu, truncated after … (protein, UniProt P16455 1-207, looked up, variant C62A Q115S Q116H K125A A127T R128A G131K G132T M134L R135S C150N S151I S152N N157G S159E del183-207)
Methylated-DNA--protein-cystei …: MDKDCEMKRTTLDSPLGKLELSGCEQGLHEIKLLGKGTSAADAVEVPAPAAVLGGPEPLMQATAWLNAYFHQPEAIEEFPVPALHHPVFQQESFTRQVLWKLLKVVKFGEVISYSHLAALAGNPAATAAVKTALSGNPVPILIPCHRVVNINGAVGGYEGGLAVKEWLLAHEGHRLGKPGLG
modifications: His tag
- reduction of reaction rate to BG-Cy3 in presence of DNA (salmon sperm DNA): unchanged
- fraction of protein reacting with CPTG [1]: 5%
